# B1: TRIM39 (parent)
# chain: ERDFPCPVCRKTSRYRSLRPNRQL
# B2: SMG5 (parent)
# chain: FVSIAQSEQESLLQQAQAQFRMAQ
# Variants of: B1
# Assay: protein stability index of a GFP-peptide fusion (GPS, HEK-293T) (PSI 1-6); higher = more stable
# Conditions: c terminus: a fixed tail appended
# 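Further: lentivirally expressed fusions sorted by FACS into six bins by GFP to DsRed ratio, PSI derived from sequencing read proportions per bin multiplied by bin number.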
row,Variant,protein stability index
1,F4M,2.48
2,F4S,1.81
3,F4N,2.89
4,F4Y,2.84
5,F4K,2.86
6,F4D,2.93
7,F4V,2.39
8,F4R,2.09
9,F4L,2.1
10,F4C,2.12
11,F4Q,2.13
12,F4P,2.41
13,F4I,2.35
14,F4H,3.14
15,F4G,2.3
16,F4T,1.82
17,F4E,2.02
18,P5K,2.72
19,P5E,1.76
20,P5Q,1.18
21,P5D,2.49
22,P5F,1.81

row,Variant,protein stability index
1,P5M,2.26
2,P5G,1.67
3,P5C,2.9
4,P5H,3.7
5,P5N,1.84
6,P5A,1.74
7,P5L,3
8,P5S,2.04
9,P5I,2.91
10,R2S,1.9
11,R2V,3.06
12,R2L,1.63
13,R2P,1.78
14,R2G,1.57
15,R2N,1.86
16,R2Q,2.27
17,R2I,2.06
18,R2M,2.28
19,R2T,1.91
20,R2C,2.01
21,R2K,2.02
22,R2F,1.83

row,Variant,protein stability index
1,R2Y,2.22
2,R2D,2.1
3,R2H,2.33
4,R2W,2.18
5,R2E,2.06
6,R2A,2.13
7,E1I,2.19
8,E1M,2.16
9,E1C,2.2
10,E1G,1.83
11,E1A,2.16
12,E1T,2.71
13,E1H,2.03
14,E1V,2.06
15,E1W,2.4
16,E1S,2.25
17,E1L,2.34
18,E1F,2.14
19,E1P,2.93
20,E1Y,1.66
21,E1D,2.4
22,E1N,2.01

row,Variant,protein stability index
1,E1R,2.71
2,E1Q,2.06
3,E1K,1.77
4,D3V,2.48
5,D3P,2.06
6,D3Q,2.62
7,D3W,2.15
8,D3A,2.2
9,D3T,1.84
10,D3R,1.99
11,D3M,2.56
12,D3F,2.93
13,D3L,1.96
14,D3G,1.6
15,D3N,2.5
16,D3I,1.39
17,D3E,1.64
18,D3S,2.64
19,D3Y,1.42
20,D3H,1.78
21,D3C,2.08
22,D3K,2.64

# Variants of: B2
# Assay: as above
# Conditions: c terminus: a fixed tail appended
row,Variant,protein stability index
1,F20V,2.37
2,F20Y,2.49
3,F20W,1.82
4,A23K,2.12
5,A23L,2.4
6,A23H,2.85
7,A23C,2.1
8,A23S,2.31
9,A23T,2.33
10,A23Y,2.16
11,A23Q,2.29
12,A23F,1.75
13,A23P,1.91
14,A23W,2.58
15,A23M,2.17
16,A23E,2.85
17,A23V,2.02
18,A23N,2.12
19,A23D,2.21
20,A23G,2.46
21,A23I,2.22
22,A23R,2.26
23,R21H,2.4
24,R21G,2.08
25,R21Y,2.63
26,R21S,1.82
27,R21V,2.56

row,Variant,protein stability index
1,R21D,2.48
2,R21T,2.32
3,R21M,1.89
4,R21Q,2.6
5,R21W,3.6
6,R21F,1.92
7,R21L,2.43
8,R21E,2.64
9,R21P,2.17
10,R21A,2.27
11,R21K,2.59
12,R21N,1.94
13,R21I,1.76
14,R21C,1.44
15,M22Q,2.05
16,M22V,2.61
17,M22W,2.4
18,M22K,2.13
19,M22G,2.3
20,M22H,2.26
21,M22R,2.7
22,M22A,2.43
23,M22C,3.04
24,M22T,2.5
25,M22N,1.94
26,M22I,2.14
27,M22P,2.25

row,Variant,protein stability index
1,M22F,2.2
2,M22L,2.01
3,M22D,2.68
4,M22E,2.57
5,M22Y,2.13
6,M22S,2.92
7,Q24E,2.74
8,Q24M,1.88
9,Q24C,1.94
10,Q24V,1.63
11,Q24L,2.4
12,Q24P,2.38
13,Q24D,2.12
14,Q24W,2.76
15,Q24T,2.08
16,Q24S,2.65
17,Q24Y,2.1
18,Q24K,2.65
19,Q24N,2.24
20,Q24A,2.15
21,Q24R,2.57
22,Q24F,2.48
23,Q24G,1.71
24,Q24I,2.11
25,Q24H,1.92
